This note sets out measurements from article PMC6889138.

Assay [1] addresses ^MsmClpP1 Y110A (Mycobacterium smegmatis). The experiment in a line: native gel or EMSA; 5 µg of purified protein on 4-16% Native-PAGE Novex Bis-Tris gels, stained with Coomassie Brilliant Blue R250. On the technique in general: Mobility shift assays separate free from complexed probe on a gel.
Assay [2] concerns the target ^MsmClpP2, wild type, purified (Mycobacterium smegmatis). Put plainly: AUC; oligomeric state of each purified protein alone, in the absence of z-LL (Fig. S4).
Assay [3] has as its target ^MsmClpP2 R189A, purified (Mycobacterium smegmatis). The description is as above.
Assay [4] deals with ^MsmClpP1 R168A, purified (Mycobacterium smegmatis). Described as above.
The target of assay [5] is ^MsmClpP1, wild type, purified (Mycobacterium smegmatis). The experiment in a line: crystal structure; ^MsmClpP1 crystallised by vapor diffusion at 20 °C from sodium malonate pH 6.6-6.8; one heptamer in the asymmetric unit, tetradecamer from crystallographically related heptamers; 2.0 Å.
The target is the same in assay [6]. Put plainly: native gel or EMSA; 5 µg of purified protein on 4-16% Native-PAGE Novex Bis-Tris gels, stained with Coomassie Brilliant Blue R250.
The target is the same in assay [7]. The experiment in a line: AUC; oligomeric state of each purified protein alone, in the absence of z-LL (Fig. S4).

The stoichiometry N is a count of units in the complex or per binding partner. Regarding ^MsmClpP1 Y110A (enzyme), the stoichiometry N in assay [1] came out at 14.
In turn, ^MsmClpP2, wild type, purified (enzyme) showed a stoichiometry N in assay [2] of 7.
Take ^MsmClpP2 R189A, purified (enzyme): the stoichiometry N in assay [3] was found to be 7.
In assay [4], ^MsmClpP1 R168A, purified (enzyme) came in with a stoichiometry N of 7.
For ^MsmClpP1, wild type, purified (enzyme), the stoichiometry N in assay [5] was 14; in assay [6], 14; in assay [7] it was 7.
